5 sequences from the supplement of paper PMC5998384 can be followed below.

In data set [1] the test system is HeLa Kyoto. Nature of the data set: thermal stability score vs G1/S (z-score of summed log2 fold changes over temperatures); higher = more thermally stable than in G1/S.
In data set [2] the test system is HeLa Kyoto. Nature of the data set: solubility change mitosis vs G1/S (difference of NP-40 vs SDS log2 ratios) (log2 ratio difference); higher = more soluble in mitosis.
Data set [3] has as its system HeLa Kyoto. Nature of the data set: solubility in G1/S (NP-40 vs SDS abundance) (log2 ratio); higher = more soluble. Conditions: cell cycle stage: G1/S.
Data set [4] relates to HeLa Kyoto. Nature of the data set: melting temperature (median over replicates), in situ; higher = more thermally stable.
Where [5] appears, read: cell cycle stage: early G1 (4.5 h after nocodazole release).
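For melting temperature (median over replicates), in situ in this document: HeLa Kyoto cells synchronized by double thymidine or nocodazole block, proteins quantified by TMT10plex mass spectrometry, three independent biological replicates.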
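For solubility change mitosis vs G1/S (difference of NP-40 vs SDS log2 ratios) in this document: synchronized HeLa Kyoto cells (double thymidine block for G1/S, nocodazole release for mitosis), protein amounts in NP-40 versus SDS lysates quantified by mass spectrometry, three biological replicates.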
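For solubility in G1/S (NP-40 vs SDS abundance) in this document: HeLa Kyoto cells arrested at G1/S by double thymidine block, proteins quantified by TMT10plex mass spectrometry in mild NP-40 versus SDS extracts, three biological replicates.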
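For thermal stability score vs G1/S (z-score of summed log2 fold changes over temperatures) in this document: synchronized HeLa Kyoto cells, proteins quantified by TMT10plex mass spectrometry, three biological replicates, mitosis taken 0.5 h after nocodazole release, G1/S directly after double thymidine block.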

For the sequence “MGLLSQGSPLSWEETKRHADHVRRHGILQFLHIYHAVKDRHKDVLKWGDEVEYMLVSFDHENKKVRLVLSGEKVLETLQEKGERTNPNHPTLWRPEYGSYMIEGTPGQPYGGTMSEFNTVEANMRKRRKEATSILEENQALCTITSFPRLGCPGFTLPEVKPNPVEGGASKSLFFPDEAINKHPRFSTLTRNIRHRRGEKVVINVPIFKDKNTPSPFIETFTEDDEASRASKPDHIYMDAMGFGMGNCCLQVTFQACSISEARYLYDQLATICPIVMALSAASPFYRGYVSDIDCRWGVISASVDDRTREERGLEPLKNNNYRISKSRYDSIDSYLSKCGEKYNDIDLTIDKEIYEQLLQEGIDHLLAQHVAHLFIRDPLTLFEEKIHLDDANESDHFENIQSTNWQTMRFKPPPPNSDIGWRVEFRPMEVQLTDFENSAYVVFVVLLTRVILSYKLDFLIPLSKVDENMKVAQKRDAVLQGMFYFRKDICKGGNAVVDGCGKAQNSTELAAEEYTLMSIDTIINGKEGVFPGLIPILNSYLENMEVDVDTRCSILNYLKLIKKRASGELMTVARWMREFIANHPDYKQDSVITDEMNYSLILKCNQIANELCECPELLGSAFRKVKYSGSKTDSSN [GCLC]”, the thermal stability score in data set [1] (setting [5]) is -0.677; in data set [1] (cell cycle stage: mitosis) it was -1.1. Moreover, the “solubility change mitosis (log2)” value in data set [2] was -0.172. Also, the “solubility in G1/S (log2)” value in data set [3] came out at 0.0288. Besides, the melting temperature in data set [4] (cell cycle stage: G1/S) amounted to 52 °C; in data set [4] (cell cycle stage: mitosis), 51.8 °C.
For the sequence “MGLQLRALLGAFGRWTLRLGPRPSCSPRMAGNAEPPPAGAACPQDRRSCSGRAGGDRVWEDGEHPAKKLKSGGDEERREKPPKRKIVLLMAYSGKGYHGMQRNVGSSQFKTIEDDLVSALVRSGCIPENHGEDMRKMSFQRCARTDKGVSAAGQVVSLKVWLIDDILEKINSHLPSHIRILGLKRVTGGFNSKNRCDARTYCYLLPTFAFAHKDRDVQDETYRLSAETLQQVNRLLACYKGTHNFHNFTSQKGPQDPSACRYILEMYCEEPFVREGLEFAVIRVKGQSFMMHQIRKMVGLVVAIVKGYAPESVLERSWGTEKVDVPKAPGLGLVLERVHFEKYNQRFGNDGLHEPLDWAQEEGKVAAFKEEHIYPTIIGTERDERSMAQWLSTLPIHNFSATALTAGGTGAKVPSPLEGSEGDGDTD [PUS1]”, the figures for the thermal stability score in data set [1] (setting [5]) and in data set [1] (cell cycle stage: mitosis) were 1.9 and 6.23, respectively. In addition, the “solubility change mitosis (log2)” value in data set [2] was -0.119. In addition, the “solubility in G1/S (log2)” value in data set [3] was 0.281. Also, the melting temperature came out at 46.8 °C in data set [4] (cell cycle stage: G1/S) and 48.7 °C in data set [4] (cell cycle stage: mitosis).
As for “MGLQPLEFSDCYLDSPWFRERIRAHEAELERTNKFIKELIKDGKNLIAATKSLSVAQRKFAHSLRDFKFEFIGDAVTDDERCIDASLREFSNFLKNLEEQREIMALSVTETLIKPLEKFRKEQLGAVKEEKKKFDKETEKNYSLIDKHLNLSAKKKDSHLQEADIQVEQNRQHFYELSLEYVCKLQEIQERKKFEFVEPMLSFFQGMFTFYHQGHELAKDFNHYKMELQINIQNTRNRFEGTRSEVEELMNKIRQNPKDHKRASQFTAEGYLYVQEKRPAPFGSSWVKHYCMYRKAAKKFNMIPFEHRSGGKLGDGEVFFLKECTKRHTDSIDRRFCFDIEAADRPGVSLTMQAFSEEERKQWLEALGGKEALSHSFNTAIIPRPEGNAQLDKMGFTIIRKCISAVETRGINDQGLYRVVGVSSKVQRLLSMLMDVKTCNEVDLENSADWEVKTITSALKQYLRSLPEPLMTYELHGDFIVPAKSGSPESRVNAIHFLVHKLPEKNKEMLDILVKHLTNVSNHSKQNLMTVANLGVVFGPTLMRPQEETVAALMDLKFQNIVVEILIENHEKIFRTPPDTTFPEPTCLSASPPNAPPRQSKRQGQRTKRPVAVYNLCLELEDGDNPYPSKEDTPTSSLDSLSSPSPVTTAVPGPPGPDKNHLLADGGSFGDWASTIPGQTRSSMVQWLNPQSPTTTSSNSAVTPLSPGSSPFPFSPPATVADKPPESIRSRKARAVYPCEAEHSSELSFEIGAIFEDVQTSREPGWLEGTLNGKRGLIPQNYVKLL [ARHGAP10]”, the thermal stability score is -0.188 in data set [1] (setting [5]) and -0.186 in data set [1] (cell cycle stage: mitosis). Moreover, in data set [2], the “solubility change mitosis (log2)” value worked out at 0.08. Besides, in data set [3], the “solubility in G1/S (log2)” value was -0.255. In data set [4] (cell cycle stage: G1/S), this sequence had a melting temperature of 51.7 °C.
Take “MGLSPSAPAVAVQASNASASPPSGCPMHEGKMKGCPVNTEPSGPTCEKKTYSVPAHQERAYEYVECPIRGTAAENKENLDPSNLMPPPNQTPAPDQPFALSTVREESSIPRADSEKKWVYPSEQMFWNAMLKKGWKWKDEDISQKDMYNIIRIHNQNNEQAWKEILKWEALHAAECPCGPSLIRFGGKAKEYSPRARIRSWMGYELPFDRHDWIINRCGTEVRYVIDYYDGGEVNKDYQFTILDVRPALDSLSAVWDRMKVAWWRWTS [HCCS]”: the results for the thermal stability score in data set [1] (setting [5]) and in data set [1] (cell cycle stage: mitosis) were -0.00681 and -0.977, respectively. Besides, the “solubility change mitosis (log2)” value in data set [2] is -0.0745. Also, in data set [3], the “solubility in G1/S (log2)” value worked out at 0.328. For the same sequence, the melting temperature in data set [4] (cell cycle stage: G1/S) turned out to be 55.3 °C; in data set [4] (cell cycle stage: mitosis), 55.1 °C.
For the sequence “MGLYAAAAGVLAGVESRQGSIKGLVYSSNFQNVKQLYALVCETQRYSAVLDAVIASAGLLRAEKKLRPHLAKVLVYELLLGKGFRGGGGRWKALLGRHQARLKAELARLKVHRGVSRNEDLLEVGSRPGPASQLPRFVRVNTLKTCSDDVVDYFKRQGFSYQGRASSLDDLRALKGKHFLLDPLMPELLVFPAQTDLHEHPLYRAGHLILQDRASCLPAMLLDPPPGSHVIDACAAPGNKTSHLAALLKNQGKIFAFDLDAKRLASMATLLARAGVSCCELAEEDFLAVSPSDPRYHEVHYILLDPSCSGSGMPSRQLEEPGAGTPSPVRLHALAGFQQRALCHALTFPSLQRLVYSTCSLCQEENEDVVRDALQQNPGAFRLAPALPAWPHRGLSTFPGAEHCLRASPETTLSSGFFVAVIERVEVPR [NSUN5]”, the thermal stability score in data set [1] (setting [5]) was 0.348; in data set [1] (cell cycle stage: mitosis), -0.0976. In addition, the “solubility change mitosis (log2)” value in data set [2] was 0.282. In data set [3], the “solubility in G1/S (log2)” value was -0.194. The melting temperature came to 48.7 °C in data set [4] (cell cycle stage: G1/S) and 50.2 °C in data set [4] (cell cycle stage: mitosis).
